Read-outs that look alike come from different tables or passages of the source.

Data set [1] concerns the target Ubiquitin-Vinyl Sulfone (U-202; Boston Biochem).
The target in data set [2] is T1, Ubiquitin-7-amido-4-methylcoumarin (U-550; Boston Biochem). The experiment in a line: Ub-AMC hydrolysis at 20 nM USP1, Lineweaver-Burk plot; standard deviation in brackets.
Data set [3] concerns the target UAF1 with engineered C-terminal Strep II tag, purified from Sf9 cells.
Data set [4] deals with Strep-tagged UAF1-ΔWD2 purified from Sf9 insect cells.
In data set [5] the target is T1, Ubiquitin-7-amido-4-methylcoumarin ….
Data set [6] has as its target monoubiquitinated Flag-HA-tagged FANCD2 protein purified from hydroxyurea-treated HeLa cells, Q9BXW9.
Data set [7] addresses T1, Ubiquitin-7-amido-4-methylcoumarin …. The data set can be described thus: Ub-AMC hydrolysis at 2 nM USP1/UAF1 complex, Lineweaver-Burk plot; standard deviation in brackets.
Data set [8] concerns the target Flag-HA-tagged UAF1, expressed in and purified from HeLa cells.

B1: c-Myc-tagged USP1 synthesized in rabbit reticulocyte lysate (protein)
chain: MPGVIPSESNGLSRGSPSKKNRLSLKFFQKKETKRALDFTDSQENEEKASEYRASEIDQVVPAAQSSPINCEKRENLLPFVGLNNLGNTCYLNSILQVLYFCPGFKSGVKHLFNIISRKKEALKDEANQKDKGNCKEDSLASYELICSLQSLIISVEQLQASFLLNPEKYTDELATQPRRLLNTLRELNPMYEGYLQHDAQEVLQCILGNIQETCQLLKKEEVKNVAELPTKVEEIPHPKEEMNGINSIEMDSMRHSEDFKEKLPKGNGKRKSDTEFGNMKKKVKLSKEHQSLEENQRQTRSKRKATSDTLESPPKIIPKYISENESPRPSQKKSRVKINWLKSATKQPSILSKFCSLGKITTNQGVKGQSKENECDPEEDLGKCESDNTTNGCGLESPGNTVTPVNVNEVKPINKGEEQIGFELVEKLFQGQLVLRTRCLECESLTERREDFQDISVPVQEDELSKVEESSEISPEPKTEMKTLRWAISQFASVERIVGEDKYFCENCHHYTEAERSLLFDKMPEVITIHLKCFAASGLEFDCYGGGLSKINTPLLTPLKLSLEEWSTKPTNDSYGLFAVVMHSGITISSGHYTASVKVTDLNSLELDKGNFVVDQMCEIGKPEPLNEEEARGVVENYNDEEVSIRVGGNTQPSKVLNKKNVEAIGLLGGQKSKADYELYNKASNPDKVASTAFAENRNSETSDTTGTHESDRNKESSDQTGINISGFENKISYVVQSLKEYEGKWLLFDDSEVKVTEEKDFLNSLSPSTSPTSTPYLLFYKKL
With B1, the “mobility shift in SDS-PAGE with Ub-VS” value in data set [1] is “there was a shift of both the full length USP1 and the N-terminal cleavage product in the presence of Ub-VS”.

B2: USP1 with N-terminal His tag, amino acids 670-71 changed from GG to AA (non-cleavable), purified from Sf9 cells (protein)
chain: MPGVIPSESNGLSRGSPSKKNRLSLKFFQKKETKRALDFTDSQENEEKASEYRASEIDQVVPAAQSSPINCEKRENLLPFVGLNNLGNTCYLNSILQVLYFCPGFKSGVKHLFNIISRKKEALKDEANQKDKGNCKEDSLASYELICSLQSLIISVEQLQASFLLNPEKYTDELATQPRRLLNTLRELNPMYEGYLQHDAQEVLQCILGNIQETCQLLKKEEVKNVAELPTKVEEIPHPKEEMNGINSIEMDSMRHSEDFKEKLPKGNGKRKSDTEFGNMKKKVKLSKEHQSLEENQRQTRSKRKATSDTLESPPKIIPKYISENESPRPSQKKSRVKINWLKSATKQPSILSKFCSLGKITTNQGVKGQSKENECDPEEDLGKCESDNTTNGCGLESPGNTVTPVNVNEVKPINKGEEQIGFELVEKLFQGQLVLRTRCLECESLTERREDFQDISVPVQEDELSKVEESSEISPEPKTEMKTLRWAISQFASVERIVGEDKYFCENCHHYTEAERSLLFDKMPEVITIHLKCFAASGLEFDCYGGGLSKINTPLLTPLKLSLEEWSTKPTNDSYGLFAVVMHSGITISSGHYTASVKVTDLNSLELDKGNFVVDQMCEIGKPEPLNEEEARGVVENYNDEEVSIRVGGNTQPSKVLNKKNVEAIGLLAAQKSKADYELYNKASNPDKVASTAFAENRNSETSDTTGTHESDRNKESSDQTGINISGFENKISYVVQSLKEYEGKWLLFDDSEVKVTEEKDFLNSLSPSTSPTSTPYLLFYKKL
B2: in data set [2], the Km stood at 1.4 µM. In data set [3], the “Ub-AMC cleavage by 2 nM USP1, fluorescence against time, 2 nM UAF1 or buffer added during the run” value is “both traces run together from about 130 to about 165 until about 12 min; then + UAF1 steps to about 245 and rises at once in a straight line beyond 500 at about 23 min, while Control steps to about 185 and reaches only about 215 at 25 min”; the “Ub-AMC cleavage by 10 nM USP1, fluorescence against time, 10 nM UAF1 added during the run” value was “the grey trace USP1 + UAF1 runs with the USP1 traces from about 120 to about 200 until about 12 min, then steps to about 310 and rises in a straight line to about 1200 at about 23 min”; the “kcat on Ub-AMC, UAF1/USP1 complex against USP1 alone” value is on record as “augmenting the kcat value 18-fold”; the “kcat/Km on Ub-AMC, UAF1/USP1 complex against USP1 alone” value is on record as “the kcat/Km is 35-fold higher for the UAF1/USP1 complex compared to USP1 alone”. Further, the “substrate turnover of Ubiquitin-AMC after adding UAF1 in an equimolar amount to USP1” value in data set [3] is “Addition of UAF1 resulted in an instantaneous and robust increase of substrate turnover”. Moreover, the “Ub-AMC cleavage by 10 nM USP1, fluorescence against time, 10 nM UAF1-ΔWD2 added during the run” value in data set [4] was “no stimulation: the two dark traces (USP1 and USP1 + UAF1-ΔWD2) lie on one another, step to about 240 at about 12 min and keep their slope, reaching about 300 at about 23 min”. Moreover, in data set [5], the Km result was “decreasing the Km from 1.4 µM to 0.7 µM”; the “Ub-AMC cleavage, fluorescence against time, 10 nM USP1 alone” value is given as “slow rise from about 120 at 0 min to about 300 at about 23 min, on one line with USP1 + UAF1-ΔWD2”; the “Ub-AMC cleavage, fluorescence against time, 10 nM protein” value was “rises slowly and almost linearly from about 130 at 0 min to about 400 at 40 min”; the kcat is 0.014 s⁻¹. Moreover, in data set [5], the “rate of Ub-AMC conversion V (nM/s) against [S] (µM), 20 nM USP1” value is recorded as “V rises from about 0.09 nM/s at 0.6 µM to about 0.2 nM/s at 3 µM; the fitted curve still rises, no plateau”. Also, in data set [6], the “in vitro deubiquitination of Ub-FANCD2” value is “USP1 protein alone was unable to deubiquitinate Ub-FANCD2”.

B3: USP1/UAF1 complex (heterodimer) co-expressed in and purified from Sf9 cells, Example 1 (protein)
chain 1: MPGVIPSESNGLSRGSPSKKNRLSLKFFQKKETKRALDFTDSQENEEKASEYRASEIDQVVPAAQSSPINCEKRENLLPFVGLNNLGNTCYLNSILQVLYFCPGFKSGVKHLFNIISRKKEALKDEANQKDKGNCKEDSLASYELICSLQSLIISVEQLQASFLLNPEKYTDELATQPRRLLNTLRELNPMYEGYLQHDAQEVLQCILGNIQETCQLLKKEEVKNVAELPTKVEEIPHPKEEMNGINSIEMDSMRHSEDFKEKLPKGNGKRKSDTEFGNMKKKVKLSKEHQSLEENQRQTRSKRKATSDTLESPPKIIPKYISENESPRPSQKKSRVKINWLKSATKQPSILSKFCSLGKITTNQGVKGQSKENECDPEEDLGKCESDNTTNGCGLESPGNTVTPVNVNEVKPINKGEEQIGFELVEKLFQGQLVLRTRCLECESLTERREDFQDISVPVQEDELSKVEESSEISPEPKTEMKTLRWAISQFASVERIVGEDKYFCENCHHYTEAERSLLFDKMPEVITIHLKCFAASGLEFDCYGGGLSKINTPLLTPLKLSLEEWSTKPTNDSYGLFAVVMHSGITISSGHYTASVKVTDLNSLELDKGNFVVDQMCEIGKPEPLNEEEARGVVENYNDEEVSIRVGGNTQPSKVLNKKNVEAIGLLAAQKSKADYELYNKASNPDKVASTAFAENRNSETSDTTGTHESDRNKESSDQTGINISGFENKISYVVQSLKEYEGKWLLFDDSEVKVTEEKDFLNSLSPSTSPTSTPYLLFYKKL
chain 2: not shown
On to B3, for which, in data set [5], the Km entry was “decreasing the Km from 1.4 µM to 0.7 µM”; the “Ub-AMC cleavage, fluorescence against time, 10 nM protein” value is “rises steeply from about 350 at 0 min to a plateau of about 2000 reached at about 15 min”; the kcat was 0.26 s⁻¹; the “rate of Ub-AMC conversion V (nM/s) against [S] (µM), 2 nM USP1/UAF1 complex” value is on record as “V rises from about 0.19 nM/s at about 0.4 µM to about 0.43 nM/s at 3 µM; the fitted curve flattens but still rises, no plateau”. Besides, in data set [6], the “in vitro deubiquitination of Ub-FANCD2” value is on record as “the UAF11USP1 complex readily deubiquitinated the substrate; about half of the substrate was deubiquitinated”. In addition, the Km in data set [7] is 0.7 µM.

B4: native USP1 complex purified from HeLa nuclear extract (protein)
chain 1: MPGVIPSESNGLSRGSPSKKNRLSLKFFQKKETKRALDFTDSQENEEKASEYRASEIDQVVPAAQSSPINCEKRENLLPFVGLNNLGNTCYLNSILQVLYFCPGFKSGVKHLFNIISRKKEALKDEANQKDKGNCKEDSLASYELICSLQSLIISVEQLQASFLLNPEKYTDELATQPRRLLNTLRELNPMYEGYLQHDAQEVLQCILGNIQETCQLLKKEEVKNVAELPTKVEEIPHPKEEMNGINSIEMDSMRHSEDFKEKLPKGNGKRKSDTEFGNMKKKVKLSKEHQSLEENQRQTRSKRKATSDTLESPPKIIPKYISENESPRPSQKKSRVKINWLKSATKQPSILSKFCSLGKITTNQGVKGQSKENECDPEEDLGKCESDNTTNGCGLESPGNTVTPVNVNEVKPINKGEEQIGFELVEKLFQGQLVLRTRCLECESLTERREDFQDISVPVQEDELSKVEESSEISPEPKTEMKTLRWAISQFASVERIVGEDKYFCENCHHYTEAERSLLFDKMPEVITIHLKCFAASGLEFDCYGGGLSKINTPLLTPLKLSLEEWSTKPTNDSYGLFAVVMHSGITISSGHYTASVKVTDLNSLELDKGNFVVDQMCEIGKPEPLNEEEARGVVENYNDEEVSIRVGGNTQPSKVLNKKNVEAIGLLGGQKSKADYELYNKASNPDKVASTAFAENRNSETSDTTGTHESDRNKESSDQTGINISGFENKISYVVQSLKEYEGKWLLFDDSEVKVTEEKDFLNSLSPSTSPTSTPYLLFYKKL
chain 2: not shown
Take B4: the “mobility shift in SDS-PAGE with Ub-VS” value in data set [1] was “a mobility shift of both full length and the N-terminal cleavage product of USP1 was observed, demonstrating enzymatic activity of both polypeptides”. Also, the “in vitro deubiquitination of Ub-FANCD2” value in data set [6] was “the USP1 complex could support this reaction”.

B5: N-terminal cleavage product of c-Myc-tagged USP1 (rabbit reticulocyte lysate) (protein)
chain: MPGVIPSESNGLSRGSPSKKNRLSLKFFQKKETKRALDFTDSQENEEKASEYRASEIDQVVPAAQSSPINCEKRENLLPFVGLNNLGNTCYLNSILQVLYFCPGFKSGVKHLFNIISRKKEALKDEANQKDKGNCKEDSLASYELICSLQSLIISVEQLQASFLLNPEKYTDELATQPRRLLNTLRELNPMYEGYLQHDAQEVLQCILGNIQETCQLLKKEEVKNVAELPTKVEEIPHPKEEMNGINSIEMDSMRHSEDFKEKLPKGNGKRKSDTEFGNMKKKVKLSKEHQSLEENQRQTRSKRKATSDTLESPPKIIPKYISENESPRPSQKKSRVKINWLKSATKQPSILSKFCSLGKITTNQGVKGQSKENECDPEEDLGKCESDNTTNGCGLESPGNTVTPVNVNEVKPINKGEEQIGFELVEKLFQGQLVLRTRCLECESLTERREDFQDISVPVQEDELSKVEESSEISPEPKTEMKTLRWAISQFASVERIVGEDKYFCENCHHYTEAERSLLFDKMPEVITIHLKCFAASGLEFDCYGGGLSKINTPLLTPLKLSLEEWSTKPTNDSYGLFAVVMHSGITISSGHYTASVKVTDLNSLELDKGNFVVDQMCEIGKPEPLNEEEARGVVENYNDEEVSIRVGGNTQPSKVLNKKNVEAIGLLGG
Regarding B5, in data set [8], the “amount of the N-terminal cleavage product of c-Myc-USP1 after cycloheximide in reticulocyte lysate (anti-c-Myc immunoblot)” value was “the e-USP1-N-Term. band (about 97 kDa) stays faint from 0 min to 2h in Control and grows stronger from 0 min to 2h with + UAF1”. The “mobility shift in SDS-PAGE with Ub-VS” value in data set [1] is “there was a shift of both the full length USP1 and the N-terminal cleavage product in the presence of Ub-VS”.

For orientation: Km means the substrate concentration at which the rate is half of its maximum. A word on the kcat: it is the maximal rate divided by the concentration of active sites.
